This assay addresses GST fusion protein of the cytoplasmic region of DSC2a A897fsX900 (aa 716–899) (human) (UniProt Q02487). Put plainly: pull-down.
UniProt Q02487, sequence (Q02487 716-899): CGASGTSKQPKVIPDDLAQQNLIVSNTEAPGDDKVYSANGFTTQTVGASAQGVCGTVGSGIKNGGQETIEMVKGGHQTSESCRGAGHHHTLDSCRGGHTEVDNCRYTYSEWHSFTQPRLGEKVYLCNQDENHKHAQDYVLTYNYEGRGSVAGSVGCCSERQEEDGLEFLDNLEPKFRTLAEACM

B1: plakoglobin (PG), endogenous in adult rat heart lysate (natural protein)
chain: MEVMNLIEQPIKVTEWQQTYTYDSGIHSGVNTCVPSVSSKGLLDEDDTCGRQYTLKKTTTYTQGVPQSQGDLEYQMSTTARAKRVREAMCPGVSGEDSSLLLATQVEGQTTNLQRLAEPSQLLKSAIVHLINYQDDAELATRALPELTKLLNDEDPVVVTKAAMIVNQLSKKEASRRALMGSPQLVAAVVRTMQNTSDLDTARCTTSILHNLSHHREGLLAIFKSGGIPALVRMLSSPVESVLFYAITTLHNLLLYQEGAKMAVRLADGLQKMVPLLNKNNPKFLAITTDCLQLLAYGNQESKLIILANGGPQGLVQIMRNYSYEKLLWTTSRVLKVLSVCPSNKPAIVEAGGMQALGKHLTSNSPRLVQNCLWTLRNLSDVATKQEGLENVLKILVNQLSVDDVNVLTCATGTLSNLTCNNSKNKTLVTQNSGVEALIHAILRAGDKDDITEPAVCALRHLTSRHPEAEMAQNSVRLNYGIPAIVKLLNQPNQWPLVKATIGLIRNLALCPANHAPLQEAAVIPRLVQLLVKAHQDAQRHVAAGTQQPYTDGVRMEEIVEGCTGALHILARDPMNRMEIFRLNTIPLFVQLLYSSVENIQRVAAGVLCELAQDKEAADAIDAEGASAPLMELLHSRNEGTATYAAAVLFRISEDKNPDYRKRVSVELTNSLFKHDPAAWEAAQSMIPINEPYADDMDATYRPMYSSDVPLDPLDMHMDMDGDYPMDTYSDGLRPPYPAADHMLA
Turning to B1, the reduction of binding against DSC2a WT (densitometry) worked out at 50%.

The values are drawn from paper PMC3058729.
